“And” between values parts separate entries of the source, which are not always exact repeats. Equal entries are not always repeated.
Target: Sudan Ebolavirus, Boniface (Bei Resources NR-31810; sonicated, gamma-irradiated infected Vero E6 cell pellets)

With “preformed immune complex of peroxidase-rabbit anti-peroxidase IgG (PAP complex) (from UniProt P00433 31-338)” the OD 405 nm was 1.42 OD 405 nm and 1.29 OD 405 nm and 1.08 OD 405 nm.
